Patent US20230036503A1, “Fusion Protein, Amino Acid Sequence Thereof, Coding Nucleotide Sequence Thereof, Preparation Method Thereof and Use Thereof” (priority 2019, published 2023)
“Also recorded” adds a separate entry of the source.

B1: His-MP7: heptapeptide fusion protein, SEQ ID NO: 15: elf18, csp22, flg22, flgII-28, nlp20, pep1, pip1 in sequence, linkers GAG and AGA, HIS tag (protein)
chain: MGSSHHHHHHSSGLVPRGSHMASMTGGQQMGRDPNSSSVDKLSKEKFERTKPHVNVGTIGGAGAVGTVKWFNAEKGFGFITPDDGAGAQRLSTGSRINSAKDDAAGLQIAGAGESTNILQRMRELAVQSRNDSNSATDREAGAGAIMYSWYFPKDSPVTGLGHRAGAATKVKAKQRGKEKVSSGRPGQHNAGARLASGPSPRGRGH
modifications: his-MP7

Tests used:
[1] = test system: callose accumulation of Arabidopsis; experiment: Intensity of immune responses of various fusion proteins: callose fluorescence in Arabidopsis leaves quantified by ImageJ; format: in vivo; details: 100 nmol final concentration
Method: Computation was conducted through image processing software ImageJ according to obtained callose accumulation fluorescence images, and the immune activation ability of the fusion proteins to the plants was quantified by virtue of the fluorescence intensity. Computing methods were as follows:
Measured IntDen=Integrated Density=Integrated Optical Density;
Measured Area=Image Area;
MD(mean optical density)=IntDen/Area.

[2] = test system: Tobacco mosaic virus (TMV); experiment: Resistance of tobacco plants to Tobacco mosaic virus (disease grading, disease index, control effect)
Method: The experiment was divided into an experimental group and a control group (with 20 lines of tobacco plants in each group). After the experimental group was injected with a recombinant protein, viruses were inoculated to the experimental group; and after the control group was injected with the sterile water, the viruses were inoculated to the control group. It was inoculated through the following steps:
(1) Fresh leaves infected with TMV were added to a small amount of sterilized phosphate buffer (1:200) and were ground in a mortar and filtered with sterilized gauze to remove the residues of the infected leaves. The above fresh juice was prepared as an inoculum and a concentration of the inoculum of the TMV was adjusted to obtain an aqueous solution of TMV.
(2) When tobacco seedlings were in the 4-5 true leaves period, fully expanded true leaves were selected; a suitable amount of quartz sands were uniformly scattered on the leaf surfaces; and the leaf surfaces were slightly rubbed by an absorbent ball dipped with the aqueous solution of TMV for 1-2 times and then immediately washed with water.
(3) After inoculation for 21 days, the morbidity of tobacco plants was observed. With each plant as a unit for assessment, the grading standard was as follows:
Grade 0: freedom from disease
Grade 3: newborn leaf had yellow-green stripes parallel to the leaf vein with slightly curling;
Grade 7: plant was dwarfed, leaf had yellowish-white strips with curling, and newborn leaves were twisted and prolapsed and could not be normally expanded; and
Grade 9: plant was dwarfed seriously and subjected to chlorina or died.
A disease index and the control effect were computed with the following methods:
Disease index=[Σ(number of infected plants in various grades×relative grade value)/(total number of plants investigated×9)]×100;
Control effect (%)=[(control disease index-treatment disease index)/control disease index]×100.

[3] = test system: callose accumulation of Arabidopsis; experiment: Callose accumulation in Arabidopsis leaves infiltrated with fusion protein or PAMP polypeptide (aniline blue staining); format: in vivo
Method: In immune responses of plant cells, callose might accumulate. The callose might enhance the mechanical strength of plant cell walls and block channels through which pathogens spread between the cells, thereby limiting invasion of pathogenic microorganisms. With a model plant Arabidopsis as a material and callose accumulation as immune index, the immune activation abilities of different concentrations of fusion proteins His-MP7 were analyzed and were compared to that of a single PAMP polypeptide. A specific experimental operation was as follows:
Final concentrations of the fusion protein His-MP7 and a polypeptide flg22 were adjusted to be 1 μM, 100 nM and 10 nM respectively, with water being served as a control. Four-week old Arabidopsis leaves were infiltrated with an injection syringe permeation method for 12 h, the treated leaves were collected and put in a 6-well plate, and a suitable amount of washing buffer was added for 4 h incubation. The washing buffer was substituted by an aniline blue staining solution with a final concentration of 0.1 mg/mL for staining at a room temperature in the dark for 1 h, and the callose accumulation was observed using a 10 times objective lens of a fluorescence microscope. Each treatment contained three biological replicates with three repeated experiments.
A final concentration of the fusion protein His-MP7 and each of polypeptides flg22, nlp20, elf18, pip1, pep1, csp22 and flgII-28 was adjusted to be 100 nM, with csp22 and flgII-28 being served as negative controls. The four-week old Arabidopsis leaves were infiltrated with an injection syringe permeation method; and a sample treatment method was the same as mentioned above.

[4] = test system: Pseudomonas syringae DC3000; experiment: Resistance of Arabidopsis to DC3000 pathogenic bacteria (colony growth in injected leaves)
Method: (1) A strain DC3000 of Pseudomonas syringae was inoculated to 20 mL of SOC+str (streptomycin) liquid medium for overnight culture for 14-16 h at 28° C., OD600 was determined, and a product was subjected to gradient dilution until OD600 was 0.00005 to obtain a bacterial solution.
(2) The fusion protein His-MP7 was added in the bacterial solution until a final concentration was 100 nM, and a bacterial solution, to which water was added, was served as a control. Meanwhile, four-week old healthy Arabidopsis leaves were injected with the bacterial solution and were sampled at Day 0 (four leaves from one plant) and Day 3 (five plants, two leaves from each plant) respectively. Each leaf was punched by a puncher. The punched small discs were taken; 500 μL of 10 mM MgCl2 was added at Day 0; the small discs were ground in a 1.5 mL EP tube; and 50 μL of each of four samples in the same treatment was spotted on one SOC+str (streptomycin) solid plate (the plate required to be blow-dried, and then the shape of each spotted sample could be kept) and cultured for 16-24 h at 28° C. Samples were photographed and observed for statistics of colony growth.
(3) At Day 3, the two leaves on each plant of the five plants were punched to take small discs similarly; 250 μL of 10 mM MgCl2 was added; and the small discs were ground in the 1.5 mL EP tube and diluted by MgCl2 stepwise until 1×10^−5.

[5] = test system: oxidative burst immune response in corn leaves; experiment: Reactive oxygen species / oxidative burst in corn leaves (DAB staining); format: in vivo; details: 100 nM, corn leaves soaked 48 h, FIG. 4
Method: Oxidative burst was considered as one of earliest responses of plants to pathogenic microorganisms and played an important role in defense responses of the plants. […] After the plants were infected by the pathogenic microorganisms, the reactive oxygen species could be produced and accumulate, and oxidative burst could be caused. With plant corns as a material and the reactive oxygen species as an immune index, the immune activation ability of 100 nM fusion protein His-MP7 was analyzed. A specific experimental operation was as follows:
Two-week old corn leaves were taken, the intermediate portion of each leaf was taken, shorn with a length of 5 cm and immersed into 1 μg/mL auxin 6BA solution. It was added with the fusion protein His-MP7 with a final concentration of 100 nM, with an aqueous solution of auxin 6BA being served as a blank control. The intermediate portions were soaked for 48 h, stained for 12 h using 1 mg/mL DAB solution, eluted for 12 h by a washing buffer (ethyl alcohol:acetic acid:glycerin=3:1:1) and observed after being placed for 30 min.

[6] = test system: Magaporthe grisea; format: in vivo; details: rice leaves, 100 nM
[7] = 21 days after TMV inoculation, 20 plants per group

| Molecule | MD (mean optical density = IntDen/Area) of callose fluorescence ([1]; H2O 0.002-0.003) | Immune activation ([1]; H2O: No) | Number of Infect Tobacco Plants, 0 grade [2, 7] [plant] | Number of Infect Tobacco Plants, 1 grade [2, 7] [plant] | Number of Infect Tobacco Plants, 3 grade [2, 7] [plant] | Number of Infect Tobacco Plants, 5 grade [2, 7] [plant] | Number of Infect Tobacco Plants, 7 grade [2, 7] [plant] | Number of Infect Tobacco Plants, 9 grade [2, 7] [plant] | Control effect ([2]; tobacco, TMV, 21 days, versus H2O control) [%] | Disease index ([2]; tobacco, TMV, 21 days, H2O control 78.9) | intensity of callose accumulation compared with flg22 ([3]; 100 nM His-MP7 versus 1 μM flg22, FIG. 2) | callose accumulation of Arabidopsis ([3]; 100 nM, leaf infiltration 12 h, FIG. 2) | immune activity effect compared with single PAMP polypeptides (callose accumulation) ([3]; all at 100 nM, flg22, nlp20, elf18, pip1, pep1, csp22, flgII-28, FIG. 3) | bacterium growth index ([4]; 100 nM in bacterial solution, Arabidopsis leaves, FIG. 5, control 5.38) | reduction of growth amount of Pseudomonas syringae DC3000 ([4]; 100 nM, versus water control) | induction of oxidative burst immune response [5] | scab area percentage ([6]; 3-4 days, untreated 11.6%) [%] | infection rate of Magaporthe grisea lowered by ([6]; versus untreated) [%] |
| --- | --- | --- | --- | --- | --- | --- | --- | --- | --- | --- | --- | --- | --- | --- | --- | --- | --- | --- |
| TP10 | 0.378 | Yes |  |  |  |  |  |  |  |  |  |  |  |  |  |  |  |  |
| B1 |  |  | 1 | 11 | 6 | 2 | 0 | 0 | 72.5 | 21.7 | equivalent to that induced by 1 μM PAMP polypeptide flg22 | obviously induced | superior to those of all the PAMP polypeptides; also recorded: superior to that of a single PAMP polypeptide | 4.05 | ≥ 10 | could induce the oxidative burst immune response | 1.9 | 83.6 |
